Reference: paper PMC3229523, “Identification of Lactoferricin B Intracellular Targets Using an Escherichia coli Proteome Chip” (PLoS ONE, 2011)
Ends that are not written are not given here. * marks the point of attachment. Biotin = O=C1N[C@H]2[C@H](CS[C@H]2CCCCC(=O)*)N1

Tests used:
Test in all cases: peptide or protein array; E. coli proteome chip: purified His-tagged proteins printed in duplicate on Fullmoon slides, blocked with 1% BSA; 10 nM N-terminal biotinylated LfcinB with 1% BSA, room temperature, 1 h; detected with DyLight 649-labeled streptavidin, ratio to DyLight 549-labeled anti-His antibody; ProCAT normalisation, local cut-off; triplicate chips
Conditions in all cases: both partners purified
[1] = target: T1, YihS (E. coli K-12, UniProt P32140 1-413)
T1 construct: YihS, E. coli K-12
T1 sequence (looked up): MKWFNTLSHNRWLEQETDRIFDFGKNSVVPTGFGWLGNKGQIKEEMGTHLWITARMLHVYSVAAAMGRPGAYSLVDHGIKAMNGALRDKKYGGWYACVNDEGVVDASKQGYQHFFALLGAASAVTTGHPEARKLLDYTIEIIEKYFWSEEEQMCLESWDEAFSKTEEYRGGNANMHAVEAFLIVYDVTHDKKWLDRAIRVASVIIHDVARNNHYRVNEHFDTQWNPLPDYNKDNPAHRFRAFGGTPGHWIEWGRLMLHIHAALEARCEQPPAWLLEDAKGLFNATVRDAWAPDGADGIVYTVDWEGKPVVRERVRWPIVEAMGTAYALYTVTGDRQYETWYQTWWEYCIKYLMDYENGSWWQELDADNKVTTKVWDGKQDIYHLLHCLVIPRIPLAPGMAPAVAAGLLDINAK

[2] = target: T2, YhjH (E. coli K-12, UniProt P37646 1-255)
T2 construct: YhjH, E. coli K-12
T2 sequence (looked up): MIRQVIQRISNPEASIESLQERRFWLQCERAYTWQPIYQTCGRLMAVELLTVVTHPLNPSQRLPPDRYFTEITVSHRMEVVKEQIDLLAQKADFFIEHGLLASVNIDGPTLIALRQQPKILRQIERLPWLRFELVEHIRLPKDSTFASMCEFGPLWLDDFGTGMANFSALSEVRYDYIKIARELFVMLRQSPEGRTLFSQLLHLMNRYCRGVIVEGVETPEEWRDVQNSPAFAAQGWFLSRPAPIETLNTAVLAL

[3] = target: T3, YbcQ (E. coli K-12, UniProt Q47274 1-127)
T3 construct: YbcQ, E. coli K-12
T3 sequence (looked up): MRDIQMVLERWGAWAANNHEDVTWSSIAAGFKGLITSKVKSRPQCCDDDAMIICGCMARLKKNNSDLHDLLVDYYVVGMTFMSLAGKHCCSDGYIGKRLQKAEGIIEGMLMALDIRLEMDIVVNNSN

[4] = target: T4, RcsB (E. coli K-12, UniProt P0DMC7 1-216)
T4 construct: RcsB, E. coli K-12
T4 sequence (looked up): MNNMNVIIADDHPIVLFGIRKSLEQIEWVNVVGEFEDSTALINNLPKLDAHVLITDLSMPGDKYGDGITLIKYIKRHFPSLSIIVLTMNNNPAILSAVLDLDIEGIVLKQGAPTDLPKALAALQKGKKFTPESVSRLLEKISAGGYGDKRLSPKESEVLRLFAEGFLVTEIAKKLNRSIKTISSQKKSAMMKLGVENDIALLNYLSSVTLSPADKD

[5] = target: T5, YciW (E. coli K-12, UniProt P76035 1-375)
T5 construct: YciW, E. coli K-12
T5 sequence (looked up): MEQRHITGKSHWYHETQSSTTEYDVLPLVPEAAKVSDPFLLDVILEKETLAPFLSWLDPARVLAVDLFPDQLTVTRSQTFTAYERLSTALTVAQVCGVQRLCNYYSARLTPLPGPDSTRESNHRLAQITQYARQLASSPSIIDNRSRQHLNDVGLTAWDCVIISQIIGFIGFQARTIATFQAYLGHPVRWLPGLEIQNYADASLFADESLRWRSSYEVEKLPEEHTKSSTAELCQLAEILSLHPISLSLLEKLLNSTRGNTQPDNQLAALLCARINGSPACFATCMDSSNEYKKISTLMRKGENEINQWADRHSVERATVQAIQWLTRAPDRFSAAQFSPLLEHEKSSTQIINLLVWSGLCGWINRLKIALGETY

[6] = target: T6, GidB (E. coli K-12, UniProt P0A6U5 1-207)
T6 construct: GidB, E. coli K-12
T6 sequence (looked up): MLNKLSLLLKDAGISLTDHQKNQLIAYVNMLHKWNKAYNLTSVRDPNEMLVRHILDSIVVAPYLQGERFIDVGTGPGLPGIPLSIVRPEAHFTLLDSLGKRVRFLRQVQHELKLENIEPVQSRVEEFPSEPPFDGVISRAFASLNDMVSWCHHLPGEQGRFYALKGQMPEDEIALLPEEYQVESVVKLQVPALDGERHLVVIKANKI

Measured: binding result

B1: N-terminal biotinylated Lactoferricin B (peptide, UniProt P24627 36-60, looked up)
peptide: Biotin-FKCRRWQWRMKKLGAPSITCVRRAF
modifications: ends and bridges not checked
notes: lactoferricin B (LfcinB), cationic antimicrobial peptide of 25 amino acids; also called biotinylated LfcinB; biotin-labeled LfcinB; source: bought: Kelowna Inc
binds: [1] | [2] | [3] | [4] | [5] | [6]
